Test results published in PMC314469, “Protein Interaction Networks by Proteome Peptide Scanning” (PLoS Biology, 2004).

B1: YER025W 165-177 (peptide)
chain: KSDKEISPKSQRP
B2: YOL066C 148-160 (peptide)
chain: KVHRHEPPVTSKP
B3: YGR197C 50-62 (peptide)
chain: KSLEDYRPPDEKP
B4: YML002W 638-650 (peptide)
chain: KSYRKAFPNMVKP
B5: YPL167C 291-304 (peptide)
chain: LEKLGDISDIPVKP
B6: YIR007W 614-626 (peptide)
chain: KSGSSQPPSFIKP
B7: YHR006W 264-276 (peptide)
chain: KSRHFTYPEGVKP
B8: YKL126W 608-621 (peptide)
chain: KRLLMKGYIPPYKP
B9: YGL131C 1252-1264 (peptide)
chain: LEGNELYPLSYKP
B10: YLR428C 53-65 (peptide)
chain: LEARTNFPLILRP
B11: YGL207W 558-570 (peptide)
chain: KSQTIILPIYGRP
B12: YDR409W 855-868 (peptide)
chain: KSRLIVNPFIPRRP
B13: YKR003W 302-315 (peptide)
chain: KVFLDTHKESPLRP
B14: YGL251C 1061-1073 (peptide)
chain: KYIKEKGPSSIKP
B15: YIL030C 763-775 (peptide)
chain: KSNLLSVPEAYKP
B16: YGR040W 256-269 (peptide)
chain: KRAKEYIANLPMRP
B17: YHR084W 174-186 (peptide)
chain: KRESLNQPSTTKP
B18: YBR236C 423-435 (peptide)
chain: KVKQYIEPESVKP
B19: YOL021C 286-298 (peptide)
chain: LEGSVSLPRFSKP
B20: YLR085C 335-347 (peptide)
chain: LESLSMLPEIVRP
B21: YOR365C 124-137 (peptide)
chain: LSGIQDNLLSPLKP
B22: YLR429W 427-439 (peptide)
chain: LEEKKEQPKVEKP
B23: YHR204W 395-408 (peptide)
chain: LDNILPLEWYPLRP
B24: YLL051C 566-579 (peptide)
chain: LDHAIKLSRNPDKP
B25: YOR023C 257-270 (peptide)
chain: LDEQPGFQILPFKP
B26: YGR084C 56-68 (peptide)
chain: KTDAKLKPFIYRP
B27: YPL004C 227-239 (peptide)
chain: LDDSPVTPGEARP
B28: YHR077C 993-1005 (peptide)
chain: KVVASKIPVISKP
B29: YGR086C 227-239 (peptide)
chain: LDDSPVTPGETRP
B30: YGR230W 120-133 (peptide)
chain: LEFVRGKQNIPRKP
B31: YMR184W 66-78 (peptide)
chain: KTATTPPPVLRRP
B32: YPL074W 344-356 (peptide)
chain: KRYDYKKPTVNRP
B33: YDR389W 506-518 (peptide)
chain: KRRTSLFPWLHKP
B34: YOL156W 41-54 (peptide)
chain: LDANEPPIDLPQKP
B35: YLR427W 248-260 (peptide)
chain: LSGSIIGPKRVKP
B36: YHR184W 123-135 (peptide)
chain: KSELPKSPYRQKP
B37: YPR084W 202-215 (peptide)
chain: KSILHGLADEPRRP
B38: YNL284C 230-242 (peptide)
chain: LEKRGRVPLQARP
B39: YMR044W 279-292 (peptide)
chain: KTKAKKEKPKPPKP
B40: YIL171W 41-54 (peptide)
chain: LDATEAPIDLPQKP
B41: YBR056W 390-403 (peptide)
chain: LAPMMQKGNLPKRP
B42: YPR137W 9-22 (peptide)
chain: KRKRSKGEVNPSKP
B43: YBR136W 497-510 (peptide)
chain: KTGNPFVRINPNRP
B44: YDL033C 211-223 (peptide)
chain: LAKYAGLPTAEKP
B45: YGL202W 197-209 (peptide)
chain: KVMENWTPGAPKP
B46: YJR066W 2073-2086 (peptide)
chain: LELAVPGTYFPGKP
B47: YPL029W 708-720 (peptide)
chain: LDRLKKNPYAHKP
B48: YJL095W 316-329 (peptide)
chain: KSPSNIKLSIPARP
B49: YDR285W 822-834 (peptide)
chain: LELTNPSPIQIKP
B50: YBR003W 113-125 (peptide)
chain: KSDVPEDPIYSKP
B51: YMR168C 296-309 (peptide)
chain: LSGSDYLQSGPRKP
B52: YJL219W 41-54 (peptide)
chain: LDATEPPIDLPQKP
B53: YAL011W 331-343 (peptide)
chain: KRSLEENPVNKRP
B54: YGR084C 83-96 (peptide)
chain: KTREPLQPRPPVKP
B55: YGR109W-B 563-576 (peptide)
chain: KYREIIRNDLPPRP
B56: YDL058W 339-351 (peptide)
chain: LAFFHNIPKKVRP
B57: YER093C 582-594 (peptide)
chain: LDVLKIKPLPYKP
B58: YGR193C 231-243 (peptide)
chain: LDLSNIKPIQLKP
B59: YOL087C 650-662 (peptide)
chain: LELVQPLPASKKP

Target: T1, Abp1 SH3 (ABP1_YEAST), P15891
T1 chain: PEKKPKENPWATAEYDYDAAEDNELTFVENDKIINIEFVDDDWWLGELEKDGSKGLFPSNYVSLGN
Experiment: SPOT array

In order of rising normalised SPOT signal, Boehringer light units (BLU); mean over the file's lines of this peptide:
1. B50  19.8
2. B16  22
3. B53  33.4
4. B46  40
5. B7  55.9
6. B44  55.9
7. B27  57.3
8. B29  64.5
9. B9  65.6
10. B2  69.6
11. B6  69.8
12. B32  71.4
13. B34  72.3
14. B13  73.1
15. B51  75.2
16. B1  75.6
17. B19  76.1
18. B40  77.8
19. B49  82.9
20. B10  84.3
21. B11  84.4
22. B23  84.7
23. B55  86
24. B22  86.1
25. B24  97.5
26. B37  98.4
27. B18  100
28. B14  104
29. B45  106
30. B48  107
31. B21  110
32. B42  110
33. B20  118
34. B59  118
35. B39  119
36. B33  122
37. B52  125
38. B28  126
39. B17  134
40. B5  138
41. B25  160
42. B3  161
43. B8  169
44. B58  176
45. B15  200
46. B36  205
47. B4  217
48. B56  221
49. B12  360
50. B43  371
51. B35  466
52. B47  577
53. B54  706
54. B30  800
55. B38  1240
56. B57  2070
57. B26  2160
58. B41  3410
59. B31  9110
